Our source for the amyloid nucleation score values is the supplement of paper PMC12042874.

± gives the uncertainty stated by the source.

The series in a line: amyloid nucleation score (Sup35N fusion, yeast selection) (log enrichment); library NNK2; higher = more nucleation; inactive = no reads after selection. Summed up:
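The nucleation score, computed with DiMSum, is the log enrichment of output over input reads, centred on the mode score of non-aggregating sequences. Sequences with under 100 input reads were dropped. Reads were generated by Illumina sequencing of plasmid inserts from psi-negative yeast with Sup35N fused to peptides of 20 random codons, induced with 100 μM copper sulfate for 24 hours and grown 7 days at 30°C on medium lacking adenine and uracil.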
IDNYFIRVKTFSDFMSSLDG: the amyloid nucleation score entry was “inactive”. IDVGI: the amyloid nucleation score is 0.106 ± 0.2. The result for IDYRPDCQRPVLVYLNKGCM reads -0.389 ± 0.24; that for IEDYACMLNREMG, 5.36 ± 0.049; that for IEFSDQVRCYLFCCRC, 8.977 ± 0.07. Take IEIHALRPEQMFSVLGYGVQ: the amyloid nucleation score stood at 0.146 ± 0.27. The substance IEMLSNY gave an amyloid nucleation score of -0.575 ± 0.49. On to IEPSHFNGNSASWV, for which the amyloid nucleation score is -0.184 ± 0.63. To IFDAFWYTVTVRDNDG belongs 1.76 ± 0.17; to IFFVRACSKAGFVQPLSIFY, -0.113 ± 0.65. To IFIRMH belongs 2.48 ± 0.16. The result for IFPLDQLQIFWLSLTMTMQL reads -0.829 ± 1.1; that for IFQRWHIS, -2.67 ± 1.1; that for IFRCRYTSGRFNAALSCC, -1.44 ± 0.49.

IFRDNVYFIE showed an amyloid nucleation score of -0.692 ± 1.

Consider IFSTPKTLDPVFYCL, for which the amyloid nucleation score result is “inactive”.

With IFTKNFIPCDFFMS, the amyloid nucleation score is -2.05 ± 0.76. The result for IFYGRYGAILWGAKCLY reads 1.96 ± 0.21; that for IGGLISLGISSIERGYSSLI, “inactive”; that for IGIDRL, -0.069 ± 0.49. In turn, IGLTLHMRRVVGAKSFKMPL displayed an amyloid nucleation score of 0.29 ± 0.77. With IGSLNMLLLGRLVVWMRHIA, the amyloid nucleation score came to 0.312 ± 0.54. Substance IGSRVVYISRVLLKNWTLVT came in with an amyloid nucleation score of -0.592 ± 0.76. The result for IGWFKRRSCVEFGRRRMRIL reads -1.3 ± 1.1; that for IHAFLALVNCNDTSTKTEVK, -0.435 ± 0.56; that for IHGVFCEFVRIIRNVGSAIR, -0.226 ± 0.35.

IHLKLRRYLDNYYLNATNCG: the amyloid nucleation score was -0.509 ± 0.31. The result for IIAPSSEL reads -0.479 ± 0.63; that for IICAKDMFNLFIKVRQYGWS, 4.698 ± 0.038; that for IIEIRAASGPVGFSDINMF, -0.459 ± 1.1.

For the substance IIGGTYIWVCVRGPTGRFDG, the amyloid nucleation score turned out to be 9.373 ± 0.064. The result for IIKECEWNCIVTSDIAYVRW reads 5.481 ± 0.052. To IILFTIARDLSRVGFRFLMA belongs -0.545 ± 0.56; to IILTVNRRMDLEGYFYFMFE, -0.93 ± 1; to IIMFRVYVM, -0.964 ± 0.76.

In the case of IIRVSSCPCTNI, the amyloid nucleation score entry is “inactive”. The result for IISENAYCLPMIMT reads -0.437 ± 0.54; that for IITGLQFLD, -0.691 ± 0.79; that for IITIIKF, 7.164 ± 0.03. The result for IIVFKEESYIYKTRSVLGSR reads -0.503 ± 0.56; that for IIVYFVAFASTGARASK, -0.951 ± 0.54; that for IKEFYISQNFVNSHLRLANM, -1.51 ± 1.1. In the case of IKGGRQAYNPTLGEVRGCAR, the amyloid nucleation score is 2.93 ± 0.13. To IKISNLTTKVMSHFVSGVAK belongs -0.982 ± 0.48; to IKLLLMSLTVSVTGILQFKP, 4.51 ± 0.05; to IKLQMSLATAQIETGTHGLH, 3.51 ± 0.16. For IKSVRTWGSLESA, the amyloid nucleation score is -0.073 ± 0.34. IKTSDYNHFRYWSKRPYVSW yielded an amyloid nucleation score of -0.738 ± 1.1. The result for IKTYNGGSWGALSCIALRLI reads -1.39 ± 0.78; that for ILASCTSRCFESEVRGTSFA, 0.568 ± 0.39.

Take ILCYMFVYYAYA: the amyloid nucleation score stood at 0.016 ± 1.1. To ILDRYLVHGI belongs -0.394 ± 0.78; to ILELDMLLCKKVTHL, 4.3 ± 0.089. To ILFWFRT belongs 4.9 ± 0.043; to ILGCWELSHM, -0.849 ± 1.1; to ILISIISFTKSCNISISLEW, -0.603 ± 1.1.

The substance ILLHIDNGRRSFSNIKATS gave an amyloid nucleation score of -0.886 ± 1.1. The result for ILLLFVPSDFRNICFE reads -0.532 ± 0.29; that for ILLMNVNGILSIRVQRRKRV, -0.623 ± 0.79; that for ILMCETLWNWLKWIPKFNSC, -0.403 ± 0.5. To ILRLTAVCHGHFAVRPDWKR belongs 0.248 ± 0.35; to ILRSRGERISASY, 2.97 ± 0.14; to ILVRTSCGGM, -0.898 ± 1.1.

ILVTAYTFTMVRSDEGCRKV gave an amyloid nucleation score of 3.63 ± 0.085.

In the case of ILVWANSHVLDVDHRDRGRR, the amyloid nucleation score came to 1.9 ± 0.13. The result for ILVYDEVTSYQDPYFS reads -0.69 ± 0.63; that for ILWISHLELCENVLVLDWQM, 2.99 ± 0.048; that for ILYGSGVFSSG, -1.17 ± 1.1.

For the substance ILYYLGWVASALEGHYLDES, the amyloid nucleation score is -0.853 ± 0.55. In the case of IMCQVSR, the amyloid nucleation score was -0.171 ± 1. To IMCRETRLYMGMFVFDQLPQ belongs 6.46 ± 0.079; to IMLATAAYFVLLGIFPGAWF, “inactive”; to IMLGTFMRNLQNLQHFVRHV, 0.337 ± 0.57.

Take IMPLSKLCMWETIRSDGRRG: the amyloid nucleation score was found to be 1.07 ± 0.29. Regarding IMRVMPICRFVII, the amyloid nucleation score amounted to 1.25 ± 0.12. On to IMSSV, for which the amyloid nucleation score entry is “inactive”. As for IMVRLLDAYHTMRAKDSMGN, the amyloid nucleation score came to 0.06 ± 0.62. Take INGQDKHRHWSFTLFYKKRY: the amyloid nucleation score is -0.145 ± 1.1. The substance INGVPNGYMATLGTTCVKKF gave an amyloid nucleation score of -1.11 ± 0.4. INMTLELDSVRRNLLYAGGG yielded an amyloid nucleation score of -0.142 ± 0.55.

Consider INRCMLIPTRFVVAYSWKCV, for which the amyloid nucleation score is -1.03 ± 0.78. The substance INVHSSSG returned an amyloid nucleation score of 0.344 ± 0.36. Turning to IPITSGIRRNCSSVRKDLGC, the amyloid nucleation score is 0.123 ± 0.39. The result for IPRIDDSDLFRTLDF reads -0.52 ± 1.1; that for IPTTQLAHCGQVACPARVVP, 1.23 ± 0.28; that for IPYNLIASVMLFKDLNWFAK, 6.491 ± 0.05. The result for IQASSLMVAKERFWGDLWWL reads 4.34 ± 0.1; that for IQDWHVES, -0.075 ± 0.46; that for IQLMEFWLSGGLTVIMGILR, -0.971 ± 0.61. The substance IQPQSSVVERGQMNMVGPTP yielded an amyloid nucleation score of 1.49 ± 0.12.

With IRAGAWLEICRSAVVSGPSF, the amyloid nucleation score was -0.073 ± 0.33. To IRCGREGLRR belongs “inactive”; to IRCLFVT, “inactive”; to IREYHMFDGHMRDRCFGQVK, -0.048 ± 0.65. To IRFKVMGFMFFVSW belongs 0.094 ± 0.65.

Substance IRFQCRSLRFTAIGGQVSWI registered an amyloid nucleation score of 3.48 ± 0.095.

Regarding IRFRVLVPNLGKASDRFQVP, the amyloid nucleation score is -0.19 ± 0.53. Regarding IRFWLRRFICD, the amyloid nucleation score is -0.528 ± 0.36. For the substance IRFYGS, the amyloid nucleation score entry was “inactive”. On to IRGSKSFHLCEAK, for which the amyloid nucleation score is 0.213 ± 0.33. To IRKCICSWCVECILRNPAKA belongs -0.434 ± 0.4.

IRLTSAYLHSDVWGVMQWNK came in with an amyloid nucleation score of 4.823 ± 0.041. IRMLLYCMESELKGASVEAG had an amyloid nucleation score of -0.037 ± 0.5. To IRMVDTCRVLKLSGEPFSRD belongs -0.993 ± 0.78; to IRNDKYW, -0.101 ± 0.31; to IRSFEFHNAWMCVYIWSKLY, -0.271 ± 1.

As for IRSLMSR, the amyloid nucleation score was 2.32 ± 0.061. To IRSMACDIPGV belongs -0.255 ± 0.65; to IRSNIGNSWNTLIFVYCCYT, 6.415 ± 0.049. As to IRTDSTNMCF, the amyloid nucleation score is -0.647 ± 1.1. IRVTCLLGL: the amyloid nucleation score is -0.055 ± 0.2. To IRVYFRDEYLKFG belongs -0.358 ± 0.19; to IRWSVGSGKIRGSFLLLMDL, -0.432 ± 1.1.

In the case of IRYNLGGDQLG, the amyloid nucleation score was -0.805 ± 0.44. To IRYWLNERMVSDRRTVTGGV belongs 7.47 ± 0.077. The substance IRYWSMLLEVG showed an amyloid nucleation score of 5.683 ± 0.046. On to ISAWAWHQVTWRIPGALVVG, for which the amyloid nucleation score was determined as 0.294 ± 1.1.

With ISCKSFENTTHPALIPRVKA, the amyloid nucleation score was -0.331 ± 0.5. For the substance ISCNKIIDIKMWGWVCAIA, the amyloid nucleation score was 8.729 ± 0.035.

In turn, ISDLCNASGWIRKDTSSRRL gave an amyloid nucleation score of -0.27 ± 0.23. ISESLSRWART had an amyloid nucleation score of 3.69 ± 0.12. Consider ISFDLCIKRWQK, for which the amyloid nucleation score was determined as 5.946 ± 0.054.

Turning to ISGRLNRDGGSDKMSAEREG, the amyloid nucleation score amounted to 1.25 ± 0.33.

In the case of ISGWYVVSSVS, the amyloid nucleation score stood at 0.912 ± 0.22. ISHLRVLEQSLLAEWADNFP came in with an amyloid nucleation score of 2.08 ± 0.097. The result for ISHMYCSFGSLVLFSGIRFR reads -0.774 ± 0.53. ISHYAYQ returned an amyloid nucleation score of 0.811 ± 0.57. Regarding ISLDWAPN, the amyloid nucleation score entry was “inactive”. The result for ISLISHVLANLSVIRDHANE reads -0.68 ± 0.4.

Substance ISPISEQHMLSLTSYEP displayed an amyloid nucleation score of 1.74 ± 0.35.

For the substance ISQRSNASCVN, the amyloid nucleation score worked out at 0.966 ± 0.48. ISRILRKYNVIVRSSSVSRG yielded an amyloid nucleation score of -1.06 ± 0.31. On to ISRYEGRRLKCDGITFGYSG, for which the amyloid nucleation score is -0.031 ± 0.23.

Turning to ISSSIEHNRCGVEINVICWS, the amyloid nucleation score was 7.312 ± 0.051. The result for ISVFLVMQRCVYDSYAFQAE reads -0.503 ± 0.63; that for ISYKAWMFRGRMNSVGISRY, -0.299 ± 0.63.

Substance ITKNHSVDDRCTMMYFYLCV gave an amyloid nucleation score of 3.76 ± 0.093.

ITSVKHCAS: the amyloid nucleation score came out at 1.05 ± 0.53. To IVCDVLNWPYFVAMAF belongs 0.25 ± 0.8. To IVCTYFHSTPSCYRLASNWY belongs 0.284 ± 1.1; to IVDGVYEFKC, -0.779 ± 0.32.

On to IVDSVR, for which the amyloid nucleation score stood at 0.388 ± 0.32.
